Columns and labels:
[1] = target: T1, Flag-human APRIL (human, UniProt O75888 110-250, limits assumed); test: Western blot (FIG. 7A)
T1 construct: Control antigen; not shown: Flag tag
T1 sequence (looked up): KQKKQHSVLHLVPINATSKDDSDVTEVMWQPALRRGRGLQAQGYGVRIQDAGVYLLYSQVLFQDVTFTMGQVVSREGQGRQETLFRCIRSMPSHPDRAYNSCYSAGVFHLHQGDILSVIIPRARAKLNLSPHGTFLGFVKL
From the text: (§1) FIG. 7. Use of anti-EDAR mAb in Western blotting.
(§2) The weaker signal obtained with mouse EDAR might be explained by the lower amount of mouse EDAR-Fc loaded on the gel. Binding specificity is established by showing that none of the mAbEDARs does bind to Fas-Fc and Flag-human APRIL (while Flag-human APRIL is recognized by an anti-APRIL mAb). […] The band recognized by mAbEDAR5 in the BSA lane is probably due to a cross-contamination of EDAR-Fc in the neighboring lane.

[2] = target: T2, mouse EDAR-Fc (mouse); test: ELISA on mouse EDAR-Fc (FIG. 6, 9)
T2 construct: also called mouse EDAR (1-183)-Fc; soluble mouse EDAR-Fc fusion protein
T2 sequence (chain, as listed by the source limits assumed): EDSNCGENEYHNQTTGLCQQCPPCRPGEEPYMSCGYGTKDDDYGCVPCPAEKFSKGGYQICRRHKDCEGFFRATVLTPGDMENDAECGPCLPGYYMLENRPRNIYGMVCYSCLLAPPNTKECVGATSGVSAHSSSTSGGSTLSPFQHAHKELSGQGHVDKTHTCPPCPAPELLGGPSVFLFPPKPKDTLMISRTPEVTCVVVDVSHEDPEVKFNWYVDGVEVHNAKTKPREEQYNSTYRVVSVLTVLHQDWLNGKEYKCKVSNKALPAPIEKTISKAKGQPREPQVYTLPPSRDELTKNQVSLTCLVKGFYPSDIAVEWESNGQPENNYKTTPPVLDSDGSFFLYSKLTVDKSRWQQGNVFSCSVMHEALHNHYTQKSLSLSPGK
Method: FIG. 6. Specific binding of the anti-EDAR mAb to both mouse and human EDAR. Graded concentrations of mAbEDAR1-4 or of a control mAb (Aprily 5) were added to wells of a 96-well ELISA plate coated with 100 μl of 1 μg/ml of human EDAR-Fc, mouse EDAR-Fc, human Fas-Fc or Flag-human APRIL. […] The absorbance was measured at 490 nm.
In order to obtain antibodies recognizing both human and mouse EDAR, a feature which would considerably facilitate pre-clinical development of drug candidates, EDAR-deficient mice were immunized with human EDAR. It was then assessed whether monoclonal antibodies generated from these mice indeed recognized EDAR from these two animal species. The wells of microtiter plates were coated with soluble human and mouse EDAR-Fc fusion protein and a negative control protein (human Fas-Fc), blocked and probed with serial dilutions of anti-EDAR monoclonal antibody (mAb) mAbEDAR1, 2, 3 and 4 and a negative control mAb (Aprily 5) (FIG. 6), or with a single dose of mAbEDAR1 to 15 (FIG. 9).

[3] = target: T3, human Fas-Fc (human, UniProt P25445 26-170, limits assumed); test: Western blot, 20 ng hFas-Fc (FIG. 7B)
T3 construct: Negative control protein; also called hFas-Fc; not shown: Fc portion
T3 sequence (looked up): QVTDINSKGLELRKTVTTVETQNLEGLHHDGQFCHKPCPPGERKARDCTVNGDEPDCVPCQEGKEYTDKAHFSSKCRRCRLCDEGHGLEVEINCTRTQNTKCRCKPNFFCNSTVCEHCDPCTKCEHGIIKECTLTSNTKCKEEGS
From the text: as §2

[4] = target: T4, human EDAR domains I and II fused to Fc of human IgG1 (human, UniProt Q9UNE0 27-114); test: capture ELISA on EDAR-Fc truncation proteins
T4 construct: Tested as supernatant of transfected 293T cells; also called CRD1 and CRD2 EDAR-Fc truncation protein; fragment made up of domains I and II; not shown: Fc region of human IgG1
T4 sequence: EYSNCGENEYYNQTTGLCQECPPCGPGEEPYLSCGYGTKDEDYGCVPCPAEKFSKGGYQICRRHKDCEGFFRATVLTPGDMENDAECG
From the text: (§3) Epitope mapping of anti-EDAR monoclonal antibodies on recombinant human EDAR by ELISA. (A) Schematic linear representation of human EDAR showing the position of cystein residues (thin horizontal lines), of the putative N-linked glycosylation site (thick horizontal line, N), of the six structural modules (rectangles with rounded corners) composing the three cystein-rich domains (CRD1, CRD2, CRD3), of the transmembrane domain (rectangle, TMD), of the signal peptide (Leader), of the stalk and of the intracellular domain (ID). Amino acid numbers at the junctions of interest are indicated. The arrow indicates the predicted cleavage site of the signal peptide. The scheme is drawn to scale, except for the intracellular domain. (B) Wells of ELISA plates were coated with goat anti-human IgG antibody, blocked, and further incubated with human EDAR-Fc, mouse EDAR-Fc or the indicated human EDAR-Fc truncation proteins in cell supernatants of transfected cells. One well was also left without cell supernatant (Ctrl). The efficient capture of the various EDAR-Fc proteins was controlled using horseradish peroxydase-coupled donkey anti-human IgG antibody. Binding of mAbEDARs were monitored with horseradish peroxydase-coupled anti-mouse IgG antibody.
(§4) EDAR is a transmembrane protein whose extracellular part is composed of three membrane distal cystein-rich domains (CRDs) and of a proximal membrane stalk domain (FIG. 9A). Constructs coding for the entire EDAR protein, domains I and II, domains II and III, domain III and the stalk domain, domains I, II and III alone and the stalk domain alone were assembled with the Fc region of human IgG1, inserted into a mammalian expression vector and transiently transfected in 293T cells. […] The other fragments were not recognized, in particular the fragments made up of either domain I or II alone. mAbEDAR5, 6, 12 and 13 specifically recognized domain I, alone or together with domain II. mAbEDAR9, 14 and 15 only recognized Fc constructs containing the entire EDAR extracellular domain.

[5] = target: T5, human EDAR-Fc (human); test: Western blot, non-reducing SDS-PAGE (FIG. 7A)
T5 construct: also called hEDAR-Fc; human EDAR (1-183)-Fc
From the text: as §1, §2

[6] = target: T6, human EDAR domains II and III fused to Fc of human IgG1 (human, UniProt Q9R187 73-150 (mouse entry), limits assumed); test: capture ELISA on EDAR-Fc truncation proteins (FIG. 9)
T6 construct: also called CRD2 and CRD3 EDAR-Fc truncation protein; not shown: Fc region of human IgG1
T6 sequence: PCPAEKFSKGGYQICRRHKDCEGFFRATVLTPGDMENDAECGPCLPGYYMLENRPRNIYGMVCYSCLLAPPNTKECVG
From the text: as §3, §4

[7] = target: T7, human EDAR domain III and the stalk domain fused to Fc of human IgG1 (human, UniProt Q9UNE0 115-183, limits assumed); test: as above
T7 construct: also called CRD3 and stalk EDAR-Fc truncation protein; not shown: Fc region of human IgG1
T7 sequence: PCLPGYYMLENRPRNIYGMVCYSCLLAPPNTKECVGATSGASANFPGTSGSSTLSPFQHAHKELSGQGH
From the text: as §3, §4

[8] = target: T8, human EDAR domain I alone fused to Fc of human IgG1 (human, UniProt Q9UNE0 27-72); test: as above
T8 construct: also called CRD1 EDAR-Fc truncation protein; not shown: Fc region of human IgG1
T8 chain: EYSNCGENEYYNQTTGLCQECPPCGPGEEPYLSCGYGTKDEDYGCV
From the text: as §3, §4

[9] = target: T9, human EDAR domain II alone fused to Fc of human IgG1 (human, UniProt Q9R187 73-114 (mouse entry), limits assumed); test: as above
T9 construct: also called CRD2 EDAR-Fc truncation protein; not shown: Fc region of human IgG1
T9 chain: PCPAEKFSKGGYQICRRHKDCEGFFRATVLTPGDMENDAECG
From the text: as §3, §4

[10] = target: T10, human EDAR domain III alone fused to Fc of human IgG1 (human, limits assumed); test: as above
T10 construct: also called CRD3 EDAR-Fc truncation protein; not shown: Fc region of human IgG1
T10 chain: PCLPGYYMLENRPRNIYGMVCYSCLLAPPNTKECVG
From the text: as §3, §4

[11] = target: T11, human EDAR stalk domain alone fused to Fc of human IgG1 (human, limits assumed); test: as above
T11 construct: also called stalk EDAR-Fc truncation protein; not shown: Fc region of human IgG1
T11 chain: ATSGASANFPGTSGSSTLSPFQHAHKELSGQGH
From the text: as §3, §4

- binding result [1]: no binding
- binding result [2]: binds
- binding result [3]: no binding
- binding result [4]: binds
- binding result [5]: binds
- binding result [6]: no binding
- binding result [7]: no binding
- binding result [8]: no binding
- binding result [9]: no binding
- binding result [10]: no binding
- binding result [11]: no binding
B1: mAbEDAR2 (antibody, IgG1, V domains shown)
VH: QVQLQQPGAELVKPGASVKLSCKASGYTFTSYWMQWVKQRPGQGIEWIGEIDPSDSYTYYNQKFKGKATLTIDKSSSTAYMQLSSLTSEDSAVYYCSRKNYYRGMDYWGQGTSVTVSS
VL: DVLMTQTPLSLPVSLGDQASISCRSSQNIVQSNGNTYLEWYLQKPGQSPKLLIYKVSNRFSGVPDRFSGSGSGTDFTLKISRVEADDLGVYYCFQVSHVPYTFGGGTKLEIKR
notes: Light chain identical to that of mAbEDAR4; also called anti-EDAR mAb mAbEDAR2

— US20130273046A1 (UNIVERSITE DE LAUSANNE, published 2013)
